Laboratory results: publication PMC9129911, “Electron Flow From the Inner Membrane Towards the Cell Exterior in Geobacter sulfurreducens: Biochemical Characterization of Cytochrome CbcL” (Frontiers in Microbiology, 2022)

Target: T1, triheme cytochrome PpcA from Geobacter sulfurreducens (Geobacter sulfurreducens, three heme groups)
T1 chain: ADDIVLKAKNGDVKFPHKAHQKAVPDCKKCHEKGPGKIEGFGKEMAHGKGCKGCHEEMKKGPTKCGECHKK
Assay: NMR titration; 1D 1H NMR chemical shift perturbation; CbcL (800 uM stock) added to 50 uM PpcA, both oxidized, 10 mM sodium phosphate pH 8, in 2H2O, 25°C; shift of PpcA heme methyl 18^1CH3^I fitted to a one binding site model under fast exchange
Settings: both partners purified

Kd: 57 ± 9 µM
B1: CbcL periplasmic domain (c- and b-type cytochrome for low potential) from Geobacter sulfurreducens (domain or fragment)
chain: IDPATCLGCHSNKISAAAFSASVHGKNACTSCHVEITDLTKHMKGEVKVEKVRCERCHKKENAEHYSSVHAQKDVRCADCHTDIHTHSYWNKDKRKVVAKCIQCHDKEAGYRNSIHGKGVAAGNMDSAACNDCHNLHDIKPLGDPKSKENREFHTKVCLKCHADEKMMERNNVFTVAVKTYMDSYHGKNYRLGFPEKVAGCADCHTAHGVLPAKDPNSSVNPQNLVATCAKCHPKATPLFTKFYSHGELG
modifications: nine c-type heme groups
